# Laboratory results reported in patent publication US12297449, “Engineered CAS9 systems for eukaryotic genome modification” (Sigma-Aldrich Co. LLC).
# T1: LrhCas9-NLS (Lactobacillus rhamnosus)
# T1 chain: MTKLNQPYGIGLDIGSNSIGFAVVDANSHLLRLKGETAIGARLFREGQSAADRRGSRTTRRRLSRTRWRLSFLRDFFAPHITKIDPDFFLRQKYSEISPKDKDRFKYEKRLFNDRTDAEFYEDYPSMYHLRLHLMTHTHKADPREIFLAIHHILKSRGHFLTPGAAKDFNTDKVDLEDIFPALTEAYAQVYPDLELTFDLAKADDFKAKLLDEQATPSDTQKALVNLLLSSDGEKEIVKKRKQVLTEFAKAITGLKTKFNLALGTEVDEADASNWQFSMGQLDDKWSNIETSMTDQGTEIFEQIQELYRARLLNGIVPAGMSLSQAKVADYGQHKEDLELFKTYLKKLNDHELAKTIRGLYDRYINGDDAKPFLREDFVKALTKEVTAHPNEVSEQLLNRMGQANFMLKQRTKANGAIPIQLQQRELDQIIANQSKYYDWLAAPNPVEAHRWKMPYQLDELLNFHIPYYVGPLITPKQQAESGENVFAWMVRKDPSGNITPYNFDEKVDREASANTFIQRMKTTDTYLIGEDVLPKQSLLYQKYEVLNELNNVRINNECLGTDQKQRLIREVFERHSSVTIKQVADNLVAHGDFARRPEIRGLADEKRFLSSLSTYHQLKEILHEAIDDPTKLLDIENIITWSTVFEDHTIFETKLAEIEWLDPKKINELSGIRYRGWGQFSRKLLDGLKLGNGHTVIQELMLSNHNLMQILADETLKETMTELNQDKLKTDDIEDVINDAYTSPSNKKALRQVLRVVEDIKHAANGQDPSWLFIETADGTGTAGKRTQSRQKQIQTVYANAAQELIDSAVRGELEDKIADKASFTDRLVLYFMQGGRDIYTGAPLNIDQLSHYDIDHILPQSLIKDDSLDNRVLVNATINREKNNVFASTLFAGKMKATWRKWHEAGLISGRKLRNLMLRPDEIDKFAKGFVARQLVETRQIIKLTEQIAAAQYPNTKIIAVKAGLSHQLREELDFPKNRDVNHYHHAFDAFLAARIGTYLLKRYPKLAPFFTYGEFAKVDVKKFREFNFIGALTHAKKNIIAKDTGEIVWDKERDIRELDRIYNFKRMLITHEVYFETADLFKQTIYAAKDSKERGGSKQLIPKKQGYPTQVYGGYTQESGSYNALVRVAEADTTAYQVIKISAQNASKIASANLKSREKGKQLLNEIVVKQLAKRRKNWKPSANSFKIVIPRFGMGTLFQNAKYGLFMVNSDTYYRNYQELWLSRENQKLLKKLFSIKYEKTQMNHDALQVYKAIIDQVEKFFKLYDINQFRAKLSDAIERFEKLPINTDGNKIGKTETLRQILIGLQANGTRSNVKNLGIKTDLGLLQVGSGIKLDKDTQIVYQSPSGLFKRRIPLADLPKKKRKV
# B1: Lrh POR target 1 sgRNA ; POR target 1 (ssRNA ; dsDNA)
# RNA: GCUCGUACUGGCGAAUGCUGUCUCAGGUAGAUGUCAGAUCAAUCAGAAAUGAUUGAUCUGACAUCUACGAGUUGAGAUCAAACAAAGCUUCAGCUGAGUUUCAAUUUCUGAGCCCAUGUUGGGCCAUACAUAUGCCACCCGAGUGCAAAUCGGGUGGCUUUUUUU
# DNA 1: GCTCGTACTGGCGAATGCTGGAAA
# DNA 2: TTTCCAGCATTCGCCAGTACGAGC
# B2: Lrh CAR target 2 sgRNA ; CAR target 2 (ssRNA ; dsDNA)
# RNA: GUGAGAGUCUCCUCCCCAAUGGUCUCAGGUAGAUGUCAGAUCAAUCAGAAAUGAUUGAUCUGACAUCUACGAGUUGAGAUCAAACAAAGCUUCAGCUGAGUUUCAAUUUCUGAGCCCAUGUUGGGCCAUACAUAUGCCACCCGAGUGCAAAUCGGGUGGCUUUUUUU
# DNA 1: GTGAGAGTCTCCTCCCCAATGGGAAA
# DNA 2: TTTCCCATTGGGGAGGAGACTCTCAC
# Target: T1, LrhCas9-NLS
# Experiment: cell_activity; PAM NGAAA; K562
# Details: tags: C-terminal SV40 NLS
row,Binder,activity
1,B1,26.7 % indel
2,B2,27 % indel
